Measured values as given in US7045617.

Target: T1, IRS727 peptide substrate
T1 chain: KKKLPATGDYMNMSPVGD

B1: insulin receptor protein tyrosine kinase (IRK), activated recombinant (protein)
chain: VFPCSVYVPDEWEVSREKITLLRELGQGSFGMVYEGNARDIIKGEAETRVAVKTVNESASLRERIEFLNEASVMKGFTCHHVVRLLGVVSKGQPTLVVMELMAHGDLKSYLRSLRPEAENNPGRPPPTLQEMIQMAAEIADGMAYLNAKKFVHRDLAARNCMVAHDFTVKIGDFGMTRDIYETDYYRKGGKGLLPVRWMAPESLKDGVFTTSSDMWSFGVVLWEITSLAEQPYQGLSNEQVLKFVMDGGYLDQPDNCPERVTDLMRMCWQFNPKMRPTFLEIVNLLKDDLHPSFPEVSFFHSEENK
B1 was tested, and the “Km app of the peptide substrate” value was “Km app (IRS727)=280 µM”.
